This passage reports protein production results from a protein production outcome set (Wang et al. 2014).

The nature of the series: label from the status in PepcDB records.
“MKLPPGFSISVWANVPDARTMTLGDKGTVFVGSKSAGNVYAITENAGKRQIRIIASKLKMPNGVAFHDGALYVSSVNRILRFDNIENTLDQPLPPRIITADYPKETYHGWRFIAFGPDGWLYVPVGSSCNVCETDLEHYALISRIRPDGSNYEVFAKGVRNTEGFDWHPVTKALWFTDISREWMGDNLPPDELNHASNQGLDFGFPYCHGKEVSDPKLGAKRDCNKFIPPAVELDPHVAPMGMRFYTGTMFPAEYHNGIFIAEHGSWNRSTKIGYRLEWVQLEVNEVARKEIFAEGWLQENEAWGRPVDVLVMPDGALLVSDDMAGVVYRISYDQPLEHHHHHH”: the protein production result is “not failed”. Under “MKLQLYVLRTVATRILGAALILMSVLQILDLLDVTSDILDRGLGMAGVGYYAALRLPRLFEQVAPIAVLAGGLFAFSQLARESAIVAMRASGISGYRIVGMAVPAAVAVMLLDALCGQVLAPRADPTLADWWRNTTPVAERKEPVPRTFRAGADLVIGANASADGRTITGVTIFRRDSKGILVEKVEAPAARYDGKAWTLEQPKTTRFAGDLSQASTAAATSWPTALRPQDVQGLFGDDSMPTAASARRALENGGSDRPESFYATHLQAAFASPFVSLVMLLLSAPVALANFRSGQGAVLLTGGLAAGLMFLVANGMLTALGESGALTPFLAVWAAPAIFGALAVRTFLALEG” stands “failed”; under “MKLQVLPLSQEAFSAYGDVIETQQRDFFHINNGLVERYHDLALVEILEQDRTLISINRAQPANLPLTIHELERHPLGTQAFIPMKGEVFVVVVALGDDKPDLSTLRAFITNGEQGVNYHRNVWHHPLFAWQRVTDFLTIDRGGSDNCDVESIPEQELCFA”, “not failed”. As for “MKLRLRHHETRETLKLELADADTLHDLRRRINPTVPSSVHLSLNRKDELITPSPEDTLRSLGLISGDLIYFSLEAGESSNWKLRDSETVASQSESNQTSVHDSIGFAEVDVVPDQAKSNPNTSVEDPEGDISGMEGPEPMDVEQLDMELAAAGSKRLSEPFFLKNILLEKSGDTSELTTLALSVHAVMLESGFVLLNHGSDKFNFSKELLTVSLRYTLPELIKSKDTNTIESVSVKFQNLGPVVVVYGTVGGSSGRVHMNLDKRRFVPVIDLVMDTSTSDEEGSSSIYREVFMFWRMVKDRLVIPLLIGICDKAGLEPPPCLMRLPTELKLKILELLPGVSIGNMACVCTEMRYLASDNDLWKQKCLEEVNNFVVTEAGDSVNWKARFATFWRQKQLAAASDTFWRQNQLGRRNISTGRSGIRFPRIIGDPPFTWFNGDRMHGSIGIHPGQSARGLGRRTWGQLFTPRCNLGGLN”, the entry is “failed”; as for “MKLSATIAIILLNWNGWRDTVDCVESCRKLDYPNFRIVIVDNGSTDGSEAILRERFPDVELIQTGANLGFAGGNNAGIRHALVRGADYVWLLNNDTVVEPGALGALVRVAESDPRVGMVGSKIVYFDDPWLLWFAGAVIDPERPHRPFHRGLHERDTGQYDRVAETGYVTGCSLLARREMMAEVGMLDDDLFLYFEDADWSARAARAGWKLLYVPDSVVRHKESVSSGGAASPRLVYYTARNRLYFVRRNFPAKLAAALCYDLFEHVLVNVKKGRFPLAVAGCRGIRDFLAGKIGPMPLEHHHHHH”, “not failed”; as for “MKLSCVIVSHNMKNYIGRCIDSVRTALADIRSLVGEAEIIVVDRGSTDGTANAARTAYADVTIVDVPFDAGWATAANKGACAATGETLLFVSPEVELLSGGLPRLLEHLETNPACAIAGGAVVSTSGALLHGPARFPGLLGKLAALTGLGSRFPRTMLDWTRYGGRNLDLPLEVDSVSFDYAVVKAAAFCKLGRFDARFHTAFADTDLCRRASRTMLPRPTVAFVPQARARAQDNFVLRDEVQAFDLHGTAVVRGRVRCEMLYVWKNYCILTSLANTTLELVGQACRYAMGLLPVIGCDKTARHSAAVLKETAQAALDTQLGSQYPTTPWLEHHHHHH”, “failed”. As for “MKLSLRYVLNQFLSTNLSIFFVLFAIVSMVFFIQLAKLTSSIEISFLDLLKLYGFMLPRILIFTLPISFFISLTLALFRLSKENESIVLFTLGFSPMILAKFFLKIASLISAFMLVVALVMIPIVFELQDNFVNYKSTQVKFNYKTGEFGQKFLDWMIFIEKQDSDKYENIIMYRPKHKADDKEQLIIAKEAHVQRKDDSFAFSLNQGKMYNFEQGQSIFSGEFDTLVVNTQFNTDNLQTKKFYEYWNDLNENPQRAREFVIYTTIALFPLASTLFALCFGLVTYRYEKGYVYLGMFGVIAIYFGLLSSFSQPPILACLGIFSLSLFVSAYCFKKMILSRY”, the entry is “failed”; as for “MKLSNKTQALHDLIAPAVQACDVNLWGIEFIPQGKRSLLRIFIDKPVDETAEPVLNEDGETELGRGIGVQDCVRVTQQVGAILDVHDPISGEYALEVSSPGWDRPFFQLEQMSAYIGQQVALRLISAVENRRKFQAKLLLVDLENEMIQVEVDGKHVLEIDSHNIDKANLIYQD”, “failed”. For “MKLTDRLLKIASLVSDGKKIADIGTDHGYIPVYLLKEGKVPFAVLADVNKGPLDNAHKEVIQNNLLDKVDLRLGSGIEILEIGEVEEVIIAGMGGILISELLEAKKEVAHNVEKLILQPMQAQEELRYYLLNNGYEILEEVLVREDFRIYEIIVA”, the protein production result is on record as “failed”. Turning to “MKLTGQAIDGFLRKPDPKIRCVLVYGPDEGLVRERLEQLARTVVADPKDPFRITDLSGDDLRADPARLADEAAALAFGGGRRLVRLRQMTDQHAPRLKAFVEAPVGEALVLVQGGDLTARSALRKLFEGASAAAALPCYADEGRSLETLVRATLAEARLAAAPEVIDYLVANLGGDRGVSRSELAKLVTYCGKATSVSLDDALACVGDSAQIGLDMLTNAVAEGDSATALRALDRLGQEGMATVALLRGLTRHFTRLHLVAGLIAGGTSVDQALAALKPPVMFKLAPRFRSQVQRWSAERLAQALDLLLDAEIDAKSSGLPERALVERLLLRLARGAKTASRLEHHHHHH”, the protein production result was “failed”.

As to “MKLVFKWHDAPLSFMEGVFARGDRRLGAALRRAWELGCRFDGWGDRFDEAAWRTAFEETGIDPAFYHRRREPDEVLPWGHLDFGVTREFLLRELELSRQGAATEDLEHHHHHH”, the protein production entry was “failed”.

For “MKLVWSPETASKAYIDTVKSCENLETPDAAELIAAMAAGWNVKLIVETWSEGDAIASSIGLNVASKHANAKHICIVQNSRSESAYLQAIQESSSPLNFPETIVAEEPGKAMKKLQGVDFLVVDWRNKEFAAAALKNAAFGNRGAVVVCRNGYSSLRRVLRDRKVVRTVTLPVTGGIEIAHVAARNSGKSGNNKRRWITHVDQRSGEEHVFSI”, the protein production result was “failed”.

Turning to “MKLYIYDHCPFCVKARMIFGLKNIPVELNVLQNDDEATPTRMIGQKMVPILQKDDSRYLPESMDIVHYVDNLDGKPLLTGKRNPAIEEWLRKVNGYVNQLLLPRFAKSAFDEFSTPAARQYFIRKKEASSGSFDNHLAHSAGLIKKIGDDLRLLDKLIVQPNAVNGELSEDDIHLFPLLRNLTLVAGIHWPTKVADYRDNMAKQTQINLLSSMAI”, the protein production entry was “not failed”. With “MKMLNRLDLGVPCLRAGFAGEQAFFLAMDGRLHVQQGDQRRVVALHDGDVLSACAAPGQADAAAWLLSAGEDGRVMRAGAGEPDCVASVPNKWVTALAVAADGALAYASGRTVWLAGGGGEAAALPQERPVQALRFSHGGRWLAVAGYDGLALYDRQAGGEPQRLDWKGMPTRVAFSPDDRFVLVATRDAVLHGWRLDTLRHFRMVGYPRAVGSWSWLAGGQWLATDGSAGAVLWPFEGEEGPIGSTPLALGERPDGEVSAVACHPARPWVAVGYADGLMVLESTDGALRRILGQAGRDRVACLAWDRAGARLAYGTPSGACGVIQADTGEEGLEHHHHHH”, the protein production entry is “failed”. “MKMNNTKEYSIRTPSLGNLPPGTTGTCCPPPLVFPLLPLSPPPSPPPSPSSPPRLPPPFPALFPPEPPLPPRFELPPPLFPPPPLPRLPPPLLPPPEEPPREPPPPPPPPEEPPPPASCLRTKSPENGIVSTVK”: the protein production result is given as “failed”. In the case of “MKMYEVKEFSSGKRKLEDYKSIIGEEEVSKIQEKAEKLKGRSFVHVNSTSFGGGVAEILHSLVPLLRSIGIEARWFVIEGPTEFFNVTKTFHNALQGNESLKLTEEMKELYLNVNRENSKFIDLSSFDYVLVHDPQPAALIEFYEKKSPWLWRCHIDLSSPNREFWEFLRRFVEKYDRYIFHLPEYVQPELDRNKAVIMPPSIDPLSEKNVELKQTEILRILERFDVDPEKPIITQVSRFDPWKGIFDVIEIYRKVKEKIPGVQLLLVGVMAHDDPEGWIYFEKTLRKIGEDYDVKVLTNLIGVHAREVNAFQRASDVILQMSIREGFGLTVTEAMWKGKPVIGRAVGGIKFQIVDGETGFLVRDANEAVEKVLYLLKHPEVSKEMGAKAKERVRKNFIITKHMERYLDILNSLGGLEHHHHHH”, the protein production entry was “not failed”.

With “MKNELICYKQMPVWTKDNLPQMFQEKHNTKVGTWGKLTVLKGKLKFYELTENGDVIAEHIFTPESHIPFVEPQAWHRVEALSDDLECTLGFYCKKEDYFSKKYNTTAIHGDVVDAAKIISPCKVLDLGCGQGRNSLYLSLLGYDVTSWDHNENSIAFLNETKEKENLNISTALYDINAANIQENYDFIVSTVVFMFLNRERVPSIIKNMKEHTNVGGYNLIVAAMSTDDVPCPLPFSFTFAENELKEYYKDWEFLEYNENMGELHKTDENGNRIKMKFATMLARKK”, the protein production entry was “not failed”. In the case of “MKNIFLTMSLGIGLLFPCKLHAQSQYPFQNTTLSTEERVDDLIKRMTLEEKIDLLSGYNDFYLHPCERLGIPAFKLADGPLGVASWGLFGRATAFPSALSLAASWNKNLAEKTGAMYAQEWRARGIHFLLAPGVNNYRASKGARNFEYFGEDPYLASEMVVPFIKAVQDGGVIATIKHFAANDQEFDRYTVSTEVSERALQEIYLPPFKAAVQKAGVKAVMTGYNLVNGVYCTENKHLIDILKKDWGFKGMLMSDWACTYSAENAANYGLDLEMGSNDWFTRKELLPLVKEGKVTEEVINDKVRRIYGACISMGFFDRPQQDTDIPTFNPQANQMALNTACEGIILLKNEQNTLPIHRPKVIAVIGPTANPAIVSDRIYNVNSIVYGGGGSSKVHPWYVVSALEGIRQEFPEATVLYTEGISNQFKPRLFRNSKFRTKEGKPGLEANYYALSSDTSATLSDKMIQQQAVAAGRTVSVNQSADRTIETDKEESGLILRRTDRTVNYEWWGYPFNESKLGNDYRVCWEGYVDVEKTDSIRFFVDAQGAYRLWIDGTLALDASQSQSFDVRNTAISAKKGDAKHIRLEFCNQRSTPAEIRMGYAYQSDIDFSEAKRLAAKADLVVFCAGLDGSIELEGRDRPFDLPYGQDMLIQELVKVNPKLIVAIHAGGGINMTRWIDQVPAVVHALYPGQEGGHALAHILSGKVNPSAKLPFTIEKRWEDSPACGHYDETRKEKKVYYTEGIFTGYRGYDQKGIEPLFPFGFGLSYTTFDYSGLNIRMTDKKQKQLVVSFTVTNTGQRDGYEVAQLYVRDMQSKEPRPLKELKGFDKVYLKAGESKQIEIGLSEDAFQYFNAKQNRWVFEKGEFEILVGASSKDIRLAEKIKM”, the protein production entry was “failed”. As to “MKNITKLSTVALSLLLCTACAASNTSTSKTQSHHPKQTKLTDKQKEEPKNKEAADQEMHPQGAVDLTKYKAKPVKDYGKKIDVGDGKKMNIYETGQGKIPIVFIPGQAEISPRYAYKNLIERLSKKYKIYTVEPLGYGLSDIPTKPRTLENITKEIHTGLNKIGVKNFYLAAHSLGGMYSLNYAKNYPEEVRGFIGMDTSTPWMEGEQKTKYDPESAKWAMKLPDVDDKTNEQYLSIAKKINGNKSQRDEDERLGDNLGKLKNVKFPKGMPTKYFLADQSVEGIKLRQADFKGLKNWDQQHIDLSEDPKDASVEIFKGSHNIFQTQYEHMAKAIDGFIQSHQK”, the protein production result is on record as “failed”. Take “MKNKIKFATIIHPDVSFFNKQEVGEGTIIYPGLIVVGRFKLGKHVILKQKCSLGNNIEIGDYSFISFNSNIDSNVMVKEGSYIEANTTILANSNIDKNTYIKEGSILYLEHHHHHH”: the protein production result is on record as “failed”.
